Assay results: patent US20210054078A1 (PHARMABCINE, published 2021)
Substitutions are numbered along the chain they refer to.

B1: ME4 anti-PD-L1 antibody (IgG form) (antibody, V domains shown)
VH: QVQLVESGAEVKKPGSSVKVSCKASGGTFNNYAVSWVRQAPGQGLEWMGRIIPILGIANYAQTFQGRVTITADKSTTTAYMELSSLRSEDTAVYYCARSYSGYAEGAFDIWGQGTMVTVSS
VL: QFVLTQPPSVSGAPGQRVTISCTGSSSNIGAGYDVHWYQQLPGTAPKVLIYGNSDRPSGVPDRFSGSKSGTSASLAITGLQGEDKATYYCQSYDSRLSGPVFGTGTKVTVLG
notes: Converted to IgG with the vectors pIgGHD-6A6Hvy and pIgGLD-6A6Lgt; Expressed in Expi293F cells
B2: ME4.A12 anti-PD-L1 antibody (IgG form) (antibody, V domains shown)
VH: B1 VH with Y100H, S101W, E105H
VL: B1 VL
B3: ME4.B12 anti-PD-L1 antibody (IgG form) (antibody, V domains shown)
VH: B1 VH with Y100S, S101F, A104S, E105V
VL: B1 VL
B4: ME4.A2 anti-PD-L1 antibody (IgG form) (antibody, V domains shown)
VH: B1 VH with Y100S, S101R, E105H
VL: B1 VL
B5: ME4.A11 anti-PD-L1 antibody (IgG form) (antibody, V domains shown)
VH: B1 VH with Y100R, S101G, E105H
VL: B1 VL
B6: ME4.B10 anti-PD-L1 antibody (IgG form) (antibody, V domains shown)
VH: B1 VH with Y100A, S101R, E105H
VL: B1 VL
B7: 1G1 anti-PD-L1 antibody (IgG form) (antibody, V domains shown)
VH: QVQLVESGGGLVQPGRSLRLSCAASGFTFDDYAMHWVRQAPGKGLEWVSGISWNSGSIGYADSVKGRFTISRDNAKNSLYLQMNSLRAEDTAVYYCAKPRDISSWLGMDVWGQGTTVTVSS
VL: DIQMTQSPSSVSASVGDRVTITCRASQDISSWLAWYQQKPGKAPKLLIYAASSLQSGVPSRFSGSGSGTDFTLTISSLQPEDSATYYCQQTNNFPYTFGQGTKLEIKR
notes: Converted to IgG with the vectors pIgGHD-6A6Hvy and pIgGLD-6A6Lgt; Expressed in Expi293F cells; also called IG1

What follows are binders tested against T1, human PD-L1 (soluble protein of the kinetic measurements) (human, UniProt Q9NZQ7 19-238, limits assumed) (assay: BLI (Octet), antibody fixed on biosensor, PD-L1 in solution).
T1 construct: kept apart from the His-tag protein of the ELISA; also called hPD-L1
Description: (§1) The binding ability of the selected anti-PD-L1 antibody to human or mouse PD-L1 was measured using the Octet system (Fortebio Inc. US). For this purpose, an anti-PD-L1 antibody was fixed on a biosensor, and binding kinetics at each concentration of human or mouse PD-L1 were measured to calculate a binding rate constant (kₐ), a dissociation rate constant (kdis) and a binding constant (KD) (Table 3).
(§2) The cell-binding ability of the optimized anti-PD-L1 antibody was measured through flow cytometry. The experiment was performed in the same manner as in Example 6. […] In order to evaluate binding force, binding kinetics were analyzed using Octet and the binding constant was calculated (Table 7).

T1 sequence (Q9NZQ7 19-238 limits assumed): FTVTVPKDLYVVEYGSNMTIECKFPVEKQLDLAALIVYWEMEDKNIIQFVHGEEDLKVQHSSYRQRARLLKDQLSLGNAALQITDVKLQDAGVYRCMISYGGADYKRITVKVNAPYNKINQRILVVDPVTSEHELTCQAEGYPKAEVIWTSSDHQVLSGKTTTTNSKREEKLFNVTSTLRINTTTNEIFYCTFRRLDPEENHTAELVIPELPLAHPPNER

Binder	koff [s⁻¹]	kon [M⁻¹ s⁻¹]	Kd [nM]
B1	0.000324	188000	–
B2	2.2e-05	165000	0.134
B3	3.19e-06	164000	0.0194
B4	1.02e-05	174000	0.0586
B5	0.000109	118000	0.918
B6	~2.42e-05	145000	0.167

The binders below were run against T2, mouse PD-L1 (soluble protein of the kinetic measurements) (mouse, UniProt Q9EP73 19-238, limits assumed) in the same assay as above.
T2 construct: kept apart from the His-tag protein of the ELISA; also called mPD-L1
Description: as §1, §2

T2 sequence (Q9EP73 19-238 limits assumed): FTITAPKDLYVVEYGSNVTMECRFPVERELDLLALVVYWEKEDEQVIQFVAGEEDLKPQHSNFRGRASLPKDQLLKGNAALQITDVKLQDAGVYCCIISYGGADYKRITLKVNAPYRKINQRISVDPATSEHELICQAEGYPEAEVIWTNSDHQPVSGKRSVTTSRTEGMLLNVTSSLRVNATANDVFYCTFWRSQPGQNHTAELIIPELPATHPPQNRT

Binder	Kd [nM]	koff [s⁻¹]	kon [M⁻¹ s⁻¹]
B1	37.4	0.00211	56300
B2	2.65	0.000817	308000
B3	1.22	0.000379	310000
B4	3.01	0.000986	328000
B5	4.86	0.000626	129000
B6	1.62	0.000422	260000

These binders were tested against T3, mouse PD-L1 on mPD-L1/CHO-K1 overexpressing cells (mouse, UniProt Q9EP73 19-290) (assay: flow cytometry, purified IgG on mPD-L1/CHO-K1 cells, PE anti-human IgG-Fc).
T3 construct: whole, on cells; also called mouse PD-L1-expressing cells
Description: (§3) For flow cytometry, overexpressing cell lines (hPD-L1/CHO-K1, mPD-L1/CHO-K1), established by introducing human and. mouse PD-L1 genes into CHO-K1 cells, were used. Each cell was maintained and cultured, washed with PBS, suspended in 5 mM EDTA and then recovered through centrifugation. A cell suspension (5×10⁶ cells/ml) was prepared using a FACS-exclusive buffer (containing 2% FBS and PBS 0.05% sodium azide), and was seeded at 100 μl/tube. […] of a test antibody was added at 100 μl to each test tube and then allowed to stand at 4° C. for 30 minutes to induce antibody-cell binding. […] After washing with 2 ml of FACS buffer, 200 μl of FACS buffer was added to suspend the cells. As a positive control group, fluorescence labeling was conducted using FITC-conjugated anti-human PD-L1 antibody (#558065, BD Biosciences) and PE-conjugated anti-mouse […] (#558091, BD Biosciences).

T3 sequence (Q9EP73 19-290): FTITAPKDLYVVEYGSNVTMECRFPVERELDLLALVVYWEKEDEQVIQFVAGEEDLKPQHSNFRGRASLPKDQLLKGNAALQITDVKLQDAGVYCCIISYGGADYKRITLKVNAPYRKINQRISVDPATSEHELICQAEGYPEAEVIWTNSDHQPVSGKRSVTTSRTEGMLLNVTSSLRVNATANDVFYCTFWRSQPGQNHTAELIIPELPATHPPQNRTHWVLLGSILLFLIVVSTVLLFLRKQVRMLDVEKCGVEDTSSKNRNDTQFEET

Binder	binding result
B7	no binding

Each binder was assayed against T3, mouse PD-L1 on mPD-L1/CHO-K1 … (assay: flow cytometry on mPD-L1/CHO-K1 cells (sheet label mPD-1/CHO-K1)).
Description: as §3, §2

Binder	% Gated in M1 [%]	Geo Mean in M1	Geo Mean, all events	Mean in M1	Mean, all events
B1	28.8	20	10.4	20.6	12.3
B2	7.31	14.2	5.39	14.4	6.38
B3	27.2	16.1	7.13	16.6	9.1
B4	51	19.1	10.8	20.3	13.8
B5	9.44	14.2	5.55	14.5	6.63
B6	18.1	15	6.41	15.4	7.85

Biological target: T1, human PD-L1 (soluble protein of the …)
Test: BLI (Octet), antibody fixed on biosensor, PD-L1 in solution
Remark: another data set of the same source
Description: as §1

Binder	Kd [nM]	koff [s⁻¹]	kon [M⁻¹ s⁻¹]
B1	1.72	0.000324	188000
B7	0.629	0.000146	232000

Biological target: T2, mouse PD-L1 (soluble protein of the …)
Test: as above
Remark: another data set of the same source
Description: as §1

Binder	Kd [nM]	koff [s⁻¹]	kon [M⁻¹ s⁻¹]
B1	37.4	0.00211	56300

These binders were tested against T4, Mouse PD-L1-HisTag (#50010-M08H, Sino Biological Inc.) (mouse, UniProt Q9EP73 19-238) (assay: ELISA on coated His-tag mouse PD-L1, OD450-630).
T4 construct: Bought protein coated on the ELISA plate; also called mPD-L1; His-tag mouse PD-L1 protein; not shown: His tag
T4 sequence (Q9EP73 19-238 limits assumed, stated change not applied): as the sequence (Q9EP73 19-238 limits assumed) above

Binder	binding result
B7	no binding

What follows are binders tested against T5, human PD-L1 on hPD-L1/CHO-K1 overexpressing cells (human, UniProt Q9NZQ7 19-290) (assay: flow cytometry on hPD-L1/CHO-K1 cells (sheet label hPD-1/CHO-K1)).
T5 construct: whole, on cells; also called human PD-L1-expressing cells
Description: as §3, §2

T5 sequence (Q9NZQ7 19-290): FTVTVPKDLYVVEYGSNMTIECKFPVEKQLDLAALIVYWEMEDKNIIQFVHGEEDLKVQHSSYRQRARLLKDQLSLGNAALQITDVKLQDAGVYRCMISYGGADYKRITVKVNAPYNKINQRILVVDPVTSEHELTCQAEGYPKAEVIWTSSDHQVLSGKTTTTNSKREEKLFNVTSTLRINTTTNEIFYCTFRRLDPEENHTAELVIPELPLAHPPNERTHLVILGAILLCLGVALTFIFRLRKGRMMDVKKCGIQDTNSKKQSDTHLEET

Binder	% Gated in M1 [%]	Geo Mean in M1	Geo Mean, all events	Mean in M1	Mean, all events
B1	83.2	34.4	27.8	38.3	33.6
B2	44.6	18.4	10.6	19.7	12.9
B3	81.6	29.2	22.5	33.8	28.9
B4	72.4	29.1	20.7	33	26.4
B5	52.6	19.4	12.1	21	14.7
B6	50.3	19.4	11.5	21	14.2
